Test results published in US20170313756A1 (Sanofi, published 2017).
[ ]: non-standard residue; d: D form. The star is where a group is joined. Butanoyl(4-Ph) = O=C(CCCc1ccccc1)*; Stearyl = stearyl group

B1: peptide 893 (peptide)
peptide: VPKGWRFHEMSYS
modifications: N-terminal acetyl (Ac); C-terminal amide; L-Trp at 5; D-isomers at all other residues except Gly 4
B2: peptide 890 (peptide)
peptide: VPKGWRXHEXSYS
modifications: N-terminal acetyl (Ac); C-terminal amide; D-Cha at 7; D-buthionine at 10; D-isomers at all residues except Gly 4
B3: peptide 895 (peptide)
peptide: VPKGWRFHEMSYS
modifications: N-terminal acetyl (Ac); C-terminal amide; L-His at 8; D-isomers at all other residues except Gly 4
B4: peptide 872 (peptide)
peptide: VPKGWRFREMSYS
modifications: N-terminal acetyl (Ac); C-terminal amide; D-isomers at all residues except Gly 4
B5: peptide 894 (peptide)
peptide: VPKGWRFHEMSYS
modifications: N-terminal acetyl (Ac); C-terminal amide; L-Arg at 6; D-isomers at all other residues except Gly 4
B6: peptide 880 (peptide)
peptide: Ac-[dV][dP][dK]G[dW][dR]F[dH][dS][dI][dI][dS][dS]-NH2
SMILES: CC[C@@H](C)[C@@H](NC(=O)[C@@H](CO)NC(=O)[C@@H](Cc1c[nH]cn1)NC(=O)[C@H](Cc1ccccc1)NC(=O)[C@@H](CCCNC(=N)N)NC(=O)[C@@H](Cc1c[nH]c2ccccc12)NC(=O)CNC(=O)[C@@H](CCCCN)NC(=O)[C@H]1CCCN1C(=O)[C@H](NC(C)=O)C(C)C)C(=O)N[C@@H](C(=O)N[C@H](CO)C(=O)N[C@H](CO)C(N)=O)[C@H](C)CC
B7: peptide 886 (peptide)
peptide: Ac-[dV][dP][dK]G[dW][dR][dF][dH][dS][dI][dI][dS][dS]-NH2
SMILES: CC[C@@H](C)[C@@H](NC(=O)[C@@H](CO)NC(=O)[C@@H](Cc1c[nH]cn1)NC(=O)[C@@H](Cc1ccccc1)NC(=O)[C@@H](CCCNC(=N)N)NC(=O)[C@@H](Cc1c[nH]c2ccccc12)NC(=O)CNC(=O)[C@@H](CCCCN)NC(=O)[C@H]1CCCN1C(=O)[C@H](NC(C)=O)C(C)C)C(=O)N[C@@H](C(=O)N[C@H](CO)C(=O)N[C@H](CO)C(N)=O)[C@H](C)CC
B8: retro-inverso α-MSH (peptide)
peptide: VPKGWRFHEMSYS
modifications: N-terminal acetyl (Ac); C-terminal amide; D-isomers at all residues except Gly 4
B9: peptide 878 (peptide)
peptide: VPKGWRFHEXSYS
modifications: N-terminal acetyl (Ac); C-terminal amide; D-buthionine at 10; D-isomers at all residues except Gly 4
B10: peptide 869 (peptide)
peptide: VPKGWRXHEMSYS
modifications: N-terminal acetyl (Ac); C-terminal amide; D-cyclohexylalanine (D-Cha) at 7; D-isomers at all residues except Gly 4

Molecular target: mouse MC1R (on murine B16-F1 melanoma cells) (mouse, UniProt Q01727 1-315)
Assay: cell-based or functional assay

Chain of mouse MC1R (on murine B16-F1 melanoma cells) (Q01727 whole entry): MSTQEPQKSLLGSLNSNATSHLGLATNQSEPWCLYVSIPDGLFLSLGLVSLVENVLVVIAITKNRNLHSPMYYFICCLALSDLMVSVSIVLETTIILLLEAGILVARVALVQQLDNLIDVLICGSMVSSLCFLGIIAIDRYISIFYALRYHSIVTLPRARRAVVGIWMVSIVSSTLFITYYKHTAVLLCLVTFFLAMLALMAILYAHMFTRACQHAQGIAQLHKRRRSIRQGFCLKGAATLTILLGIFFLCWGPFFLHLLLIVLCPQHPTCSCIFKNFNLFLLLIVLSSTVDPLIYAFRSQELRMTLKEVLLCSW

Binder	EC50, cAMP in B16-F1 cells [nM]
B1	270
B2	3600
B3	300
B4	2000
B5	212000
B6	23
B7	2
B8	9700
SYSMEHXRWGKPV (N-terminal acetyl (Ac); C-terminal amide; L-cyclohexylalanine (L-Cha) at 7, also called analog 892) [peptide 892]	21
B9	130
B10	14

Molecular target: T1, melanocortin 5 receptor (MC5R) (UniProt P33032 1-325, limits assumed)
T1 construct: whole, on cells; Membrane preparations; also called MCR-5
Assay: 125I-NDP-MSH competition, HEK293 membranes
Description: (§1) The mixtures were filtered through 96-well GFC filters (Millipore, Billerica, Mass.), washed 3 times with binding buffer without BSA, dried and counted.

T1 sequence (P33032 whole entry): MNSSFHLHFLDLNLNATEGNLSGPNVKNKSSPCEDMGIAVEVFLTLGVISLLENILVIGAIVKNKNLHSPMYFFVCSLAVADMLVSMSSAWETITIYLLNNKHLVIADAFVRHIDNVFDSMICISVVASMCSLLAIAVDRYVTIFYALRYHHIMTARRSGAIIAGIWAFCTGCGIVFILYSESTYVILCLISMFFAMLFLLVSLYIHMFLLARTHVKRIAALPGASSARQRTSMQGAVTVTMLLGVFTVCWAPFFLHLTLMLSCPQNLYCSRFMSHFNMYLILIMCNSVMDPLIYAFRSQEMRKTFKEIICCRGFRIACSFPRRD

Binder	Ki [nM]
Stearyl-H[dF]RW-NH2 [(Stearyl) HfRW (820)]	860
{Butanoyl(4-Ph)}-H[dF]RW-NH2 [(Ph(CH2)3CO) HfRW (819)]	~3000

Molecular target: T2, melanocortin 3 receptor (MC3R) (UniProt P41968 1-323, limits assumed)
T2 construct: whole, on cells; Membrane preparations; also called MCR-3
Assay: 125I-NDP-MSH competition, HEK293 membranes
Description: as §1

T2 sequence (P41968 whole entry): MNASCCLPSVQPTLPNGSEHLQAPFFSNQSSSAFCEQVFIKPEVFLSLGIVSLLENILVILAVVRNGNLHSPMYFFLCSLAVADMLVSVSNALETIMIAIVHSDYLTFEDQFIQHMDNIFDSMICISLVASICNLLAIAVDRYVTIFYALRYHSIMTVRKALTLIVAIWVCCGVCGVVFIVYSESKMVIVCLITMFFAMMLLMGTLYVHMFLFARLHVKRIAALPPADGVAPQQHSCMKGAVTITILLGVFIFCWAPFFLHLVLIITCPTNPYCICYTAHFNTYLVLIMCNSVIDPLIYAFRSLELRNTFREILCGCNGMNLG

Binder	Ki [nM]
Stearyl-H[dF]RW-NH2 [(Stearyl) HfRW (820)]	1370
{Butanoyl(4-Ph)}-H[dF]RW-NH2 [(Ph(CH2)3CO) HfRW (819)]	277

Molecular target: T3, melanocortin 1 receptor (MC1R) (UniProt Q01726 1-317, limits assumed)
T3 construct: whole, on cells; Used as membrane preparations, not whole cells; also called MCR-1; MCR1
Assay: 125I-NDP-MSH competition, HEK293 membranes
Description: as §1

T3 sequence (Q01726 whole entry): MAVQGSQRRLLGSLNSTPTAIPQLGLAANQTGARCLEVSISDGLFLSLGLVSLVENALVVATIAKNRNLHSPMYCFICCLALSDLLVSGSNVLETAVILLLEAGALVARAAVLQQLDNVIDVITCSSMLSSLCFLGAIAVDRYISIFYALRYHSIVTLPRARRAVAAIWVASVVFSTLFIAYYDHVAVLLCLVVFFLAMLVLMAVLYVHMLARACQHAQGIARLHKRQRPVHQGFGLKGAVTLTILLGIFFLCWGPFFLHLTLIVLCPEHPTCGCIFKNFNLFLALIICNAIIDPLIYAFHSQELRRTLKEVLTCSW

Binder	Ki [nM]
SYSMEHXRWGKPV (N-terminal acetyl (Ac); C-terminal amide; L-cyclohexylalanine (L-Cha) at 7, also called analog 892) [peptide 892]	0.51
Stearyl-H[dF]RW-NH2 [(Stearyl) HfRW (820)]	1.3
{Butanoyl(4-Ph)}-H[dF]RW-NH2 [(Ph(CH2)3CO) HfRW (819)]	0.07
